Bridges are numbered along the chain shown (N, C = ends). Where no end group is shown, it is not given here. [ ]: non-standard residue; d: D form. The star is where a group is joined. Biotin = O=C1N[C@H]2[C@H](CS[C@H]2CCCCC(=O)*)N1; Palmitoyl = CCCCCCCCCCCCCCCC(=O)*; R5 = C=CCCC[C@@](C)(N)C(=O)O; SNTSESF = not defined here; Octanoyl = CCCCCCCC(=O)*; Hexanoyl = CCCCCC(=O)*; Ahx = NCCCCCC(=O)O
B1: Compound 49 (peptide)
peptide: EKIQAKPALQTVRFKFSESTNS
modifications: not fully specified; Retro inverso (All D-amino acid); branch fsestns on the side chain of lys 15 of the main chain; C-terminal amide
B2: Compound 60 (peptide)
peptide: {Biotin-Ahx}-[dS][dN][dT][dS][dE][dS][dF][dK][dF][dR][dV][dT][dQ][dL][dA][dP][dK][dA][dQ][dI][dK][dE]-NH2
modifications: not fully specified (residue 8); printed as Biotin-Ahx-sntsesfk(sntsesf)frvtqlapkaqike-NH2
B3: Compound 10 (peptide)
peptide: SNQTDKVLNWYRMLAPKAQIKE-NH2
modifications: not fully specified (residue 6); printed as SNQTDK (SNQTDK) VLNWYRM LAPKAQIKE-NH2

molecular target: hPDL1 expressed on MDA-MB231 cells (human, UniProt Q9NZQ7 19-290); experiment: cell-based or functional assay
Sequence (Q9NZQ7 19-290): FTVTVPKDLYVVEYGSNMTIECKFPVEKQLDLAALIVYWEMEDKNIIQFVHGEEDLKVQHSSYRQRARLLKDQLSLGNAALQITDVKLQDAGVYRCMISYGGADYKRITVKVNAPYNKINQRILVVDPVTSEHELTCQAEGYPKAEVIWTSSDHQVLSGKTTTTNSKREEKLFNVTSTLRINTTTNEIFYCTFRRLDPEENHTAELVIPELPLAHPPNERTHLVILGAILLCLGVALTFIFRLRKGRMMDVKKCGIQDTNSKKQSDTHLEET

Binder	Percent rescue (100 nM, compared with 100 nM Comp 8) in mouse splenocyte proliferation CFSE based assay
SNTSESFKFRVTQLAPKAQIKE-NH2 (not fully specified (residue 8)) [Compound 11]	12.4%
EKIQAKPAYWNLVKDTQNS-NH2 (not fully specified (residue 14)) [Compound 14]	18%
Hexanoyl-SNTSESFKFRVTQLAPKAQIKE-NH2 (not fully specified (residue 8)) [Compound 16]	45.8%
Ac-SNTSESFKFRVTQLAPKAQIKE-NH2 (not fully specified (residue 8)) [Compound 17]	32.9%
SNTSESFKFRVTQLAPKAQIKE-NH2 (not fully specified (residue 8)) [Compound 20]	27.8%
Hexanoyl-SNTSESFKFRVTQLAPKAQIKE-NH2 (not fully specified (residue 8)) [Compound 21]	76.7%
SNTSESF[R5]PKA[R5]SNTSESF-NH2 (staple 8-12; not fully specified; printed as SNTSESFR5PKAR5SNTSESF) [Compound 22]	71.4%
SNTSESFKFRVTQLAQIKE-NH2 (not fully specified (residue 8)) [Compound 25]	27.6%
SNTSESF-NH2 [Compound 1]	96.5%
SNTSESFFRVTQLAPKAQIKE-NH2 [Compound 26]	86.6%
SNTSESFKFRVTQLAPKAQIKE-NH2 [Compound 27]	73.6%
SNTSESFKSNTSESFFRVTQLAPKAQIKE-NH2 [Compound 28]	56.5%
SNTSESFK-NH2 (not fully specified (residue 8)) [Compound 29]	31.1%
SNTSESFKLAPKAQIKE-NH2 (not fully specified (residue 8)) [Compound 30]	58.8%
SNTSESFKFRVTQKAQIKE-NH2 (not fully specified (residue 8)) [Compound 31]	11.3%
SNTSESFKKAQIKE-NH2 (not fully specified (residue 8)) [Compound 32]	14.8%
SNTSESFKFRVTQKKAQIKE-NH2 (not fully specified (residues 8, 14)) [Compound 35]	81.2%
SNQTDKLAAFPEDSQPGQD-NH2 [Compound 3]	37.3%
SNTSESFKFRVTQLAKQIKE-NH2 (not fully specified (residues 8, 16)) [Compound 36]	89.7%
SNTSESFKFRVTQLAPKAQIKE-NH2 (not fully specified (residue 8); printed as SNTSESFK(LAP)FRVTQLAPKAQIKE-NH2) [Compound 37]	89.6%
LAPKFRVTQLAPKAQIKE-NH2 (not fully specified (residue 4); printed as LAPK(LAP)FRVTQLAPKAQIKE-NH2) [Compound 38]	51.5%

Binder	Percent rescue (100 nM, compared with 100 nM Comp 8) in mouse splenocyte proliferation CFSE based assay
SNTSESFKFK(Palmitoyl)VTQLAPKAQIKE-NH2 (not fully specified (residue 8)) [Compound 40]	82%
SNTSESFKFRVTQLAP-NH2 (not fully specified (residue 8)) [Compound 41]	5.1%
SNTSESFFRVTQKLAPKAQIKE-NH2 (not fully specified (residue 13)) [Compound 42]	52.9%
FRVTQLAPKAQIKE-NH2 [Compound 43]	66%
SNTSESFKFRVTQLAPK(Octanoyl)AQIKE-NH2 (not fully specified (residue 8)) [Compound 45]	68%
SNTSESFKFRVTQLAPKAQIK(Octanoyl)E-NH2 (not fully specified (residue 8)) [Compound 46]	67%
B1	73%
EDRSQPGQDCR-NH2 [Compound 4]	74.7%
B2	14.9%
{Biotin-Ahx}-EKIQAKPAYWNLVKDTQNS-NH2 (not fully specified (residue 14)) [Compound 61]	67%
SNTSESFK(SNTSESF)FRVTQLAPEAQIKE-NH2 (lactam 17-21; reading uncertain) [Compound 62]	37%
SNTSESFK(SNTSESF)FKVTQEAPKAQIKE-NH2 (lactam 10-14; reading uncertain) [Compound 63]	68%
SNTSESFK(SNTSESF)FRVTELAPKAQIKE-NH2 (lactam 13-17; reading uncertain) [Compound 64]	69.1%
SNWSEDLK(SNWSEDL)FQIIQLHPKAKIEE-NH2 [Compound 69]	48%
SNWSEDLK(SNWSEDL)FQIIQLHPK(Palmitoyl)AKIEE-NH2 [Compound 82]	58.3%
SNTSESFKFRVTQLAPKAQIKE-NH2 (not fully specified (residue 8)) [Compound 84]	80.5%
SNWSEDLKFQIIQLHPK(MPA‑NH‑CH2‑CH2‑O‑CH2‑CH2‑O‑CO)AKIEE-NH2 (not fully specified (residue 8)) [Compound 91]	69.4%
FRVTQKFRVTQLAPKAQIKE-NH2 (not fully specified (residue 6)) [Compound 7]	61.5%
SNQTDKFRVTQLAPKAQIKE-NH2 (not fully specified (residue 6); printed as SNQTDK (SNQTDK) FRVTQ LAPKAQIKE-NH2) [Compound 9]	11.3%
B3	10.6%
